Test results taken from paper PMC2275160.

Assays:
Assay in all cases: EMSA
His6-Glis3(ZFD)3m = target: T1, His6-Glis3(ZFD)3m (mouse, UniProt Q6XP49 345-496, C414A)
T1 sequence: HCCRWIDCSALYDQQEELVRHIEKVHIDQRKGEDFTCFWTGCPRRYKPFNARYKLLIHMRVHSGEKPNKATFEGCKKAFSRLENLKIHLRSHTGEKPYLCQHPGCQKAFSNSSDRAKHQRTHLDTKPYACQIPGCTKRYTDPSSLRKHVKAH

His6-Glis3(ZFD)4m = target: T2, His6-Glis3(ZFD)4m (mouse, UniProt Q6XP49 345-496, C444A)
T2 sequence: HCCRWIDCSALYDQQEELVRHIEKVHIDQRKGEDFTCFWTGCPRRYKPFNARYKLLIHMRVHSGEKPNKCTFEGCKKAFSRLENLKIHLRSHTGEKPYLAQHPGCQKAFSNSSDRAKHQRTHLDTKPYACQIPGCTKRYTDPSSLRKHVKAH

His6-Glis3(ZFD)1m = target: T3, His6-Glis3(ZFD)1m (mouse, UniProt Q6XP49 345-496, C347A)
T3 sequence: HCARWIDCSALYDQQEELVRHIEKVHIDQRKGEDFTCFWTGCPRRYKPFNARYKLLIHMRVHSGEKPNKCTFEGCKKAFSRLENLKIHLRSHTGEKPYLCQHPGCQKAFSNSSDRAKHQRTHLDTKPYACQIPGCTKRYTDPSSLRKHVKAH

His6-Glis3(ZFD)2m = target: T4, His6-Glis3(ZFD)2m (mouse, UniProt Q6XP49 345-496, C381A)
T4 sequence: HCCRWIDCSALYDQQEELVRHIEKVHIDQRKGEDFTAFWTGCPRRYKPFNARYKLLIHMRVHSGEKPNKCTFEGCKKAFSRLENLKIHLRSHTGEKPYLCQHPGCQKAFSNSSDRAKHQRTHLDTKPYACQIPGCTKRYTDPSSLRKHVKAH

His6-Glis3(ZFD)5m = target: T5, His6-Glis3(ZFD)5m (mouse, UniProt Q6XP49 345-496, C474A)
T5 sequence: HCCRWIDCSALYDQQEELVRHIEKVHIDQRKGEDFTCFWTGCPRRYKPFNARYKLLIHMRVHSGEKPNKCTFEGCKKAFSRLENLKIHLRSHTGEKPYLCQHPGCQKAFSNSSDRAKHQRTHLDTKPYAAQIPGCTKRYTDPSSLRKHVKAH

His6-Glis3(ZFD) = target: T6, His6-Glis3(ZFD) (mouse, UniProt Q6XP49 345-496)
T6 sequence: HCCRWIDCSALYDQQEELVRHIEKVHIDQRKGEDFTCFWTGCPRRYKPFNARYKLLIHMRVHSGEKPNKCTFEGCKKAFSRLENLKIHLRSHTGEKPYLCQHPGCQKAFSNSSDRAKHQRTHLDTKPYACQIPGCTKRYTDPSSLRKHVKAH

B1: Glis-BS consensus (dsDNA)
DNA 1: CGTGGGGGGTC
DNA 2: GACCCCCCACG
3.69 ± 0.26 nM: Kd (His6-Glis3(ZFD))
no binding: binding result (His6-Glis3(ZFD)3m) | binding result (His6-Glis3(ZFD)4m) | binding result (His6-Glis3(ZFD)1m) | binding result (His6-Glis3(ZFD)2m) | binding result (His6-Glis3(ZFD)5m)
